From publication PMC10297700

Target: Rsc3ΔIDR (Saccharomyces cerevisiae, UniProt Q06639 1-885, del197-303)
Assay: EMSA

B1: ACC1_TIM23 probe (RSC3 consensus oligonucleotide) (dsDNA)
DNA 1: ACGCGCGCGCGGCCGGGCCA
DNA 2: TGGCCCGGCCGCGCGCGCGT
B1: binds.
